Measurements reported in patent publication US20250147035A1, “METHODS FOR DETECTION OF POST-TRANSLATIONAL MODIFICATIONS” (Quantum-Si Incorporated, priority 2023, published 2025).
Like-named read-outs stand apart in the source and are kept apart here. Primed or numbered codes have the meaning given here. Where no end group is shown, it is not given here. [ ]: non-standard residue; d: D form. pS = N[C@@H](COP(=O)(O)O)C(=O)O; Biotin′ = not defined here

Key:
[1] = molecular target: p…; experiment: Octet (BLI), sensors coated with peptide
QRFpYLAYPDDD-FITC = experiment: bulk fluorescence polarization, 0.5 µM PM49, FITC-labeled peptide
EFLN-pT-RFYK [2] = experiment: Octet (BLI), sensors coated with peptide
[3] = molecular target: pT-…; experiment: Octet (BLI), sensors coated with peptide
p…-Biotin [4] = molecular target: T1, p…-Biotin; experiment: Octet (BLI), fixed reagent concentration
T1 sequence (peptide, phosphothreonine at 1; C-terminal Biotin): TAKLDEESILKQ

…-Biotin [5] = molecular target: T2, …-Biotin; experiment: Octet (BLI), fixed reagent concentration
T2 sequence (peptide, C-terminal Biotin): SAKLDEESILKQ

p…-Biotin [6] = molecular target: T3, p…-Biotin; experiment: Octet (BLI), fixed reagent concentration; remark: listed apart in the source
T3 sequence (peptide, phosphoserine at 1; C-terminal Biotin): SAKLDEESILKQ

SAKLDEESILKQ-Biotin = experiment: Octet binding assay of PTM-specific affinity reagent candidates, SA control peptide; parameters: unit not given here; conditions: fixed concentration of reagent
Excerpt: (§1) This Example characterizes an exemplary phosphorylated threonine recognizer for use in methods of the disclosure.

pSAKLDEESILKQ-Biotin [7] = experiment: Octet binding assay of PTM-specific affinity reagent candidates, pSA peptide; conditions: fixed concentration of reagent
Excerpt: as §1

p[…]-Biotin [8] = experiment: Octet binding assay of PTM-specific affinity reagent candidates, pTQR peptide; conditions: fixed concentration of reagent
Protocol: (§2) This Example characterizes an exemplary phosphorylated threonine recognizer for use in methods of the disclosure. Octet binding assays at a fixed concentration of PTM-specific affinity reagent candidates were evaluated for binding with phospho-threonine, phospho-serine containing peptides (p[…]-Biotin; p[…]-Biotin; p[…]-Biotin), and control peptides without modifications ([…]-Biotin; […]-Biotin).

TAKLDEESILKQ-Biotin = molecular target: T4, TAKLDEESILKQ-Biotin; experiment: Octet (BLI), fixed reagent concentration;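 also: octet binding of candidate PTM-specific affinity reagents, each at one fixed concentration, to biotinylated phospho-Thr or phospho-Ser peptides, with unmodified biotinylated peptides serving as controls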
T4 peptide: TAKLDEESILKQ-{Biotin′}
Protocol: (§9) Octet binding assays at a fixed concentration of PTM-specific affinity reagent candidates were evaluated for binding with phospho-threonine, phospho-serine containing peptides (p[sequence]-Biotin; p[sequence]-Biotin; p[sequence]-Biotin), and control peptides without modifications ([sequence]-Biotin; [sequence]-Biotin).

p[…]-Biotin [9] = experiment: Octet binding assay of PTM-specific affinity reagent candidates, pTA peptide; conditions: fixed concentration of reagent
Excerpt: as §1

[10] = system: phospho-serine (p[…], p[…]); experiment: Polarization and Octet binding assays of PM12; conditions: PM12 fixed concentration
Protocol: (§3) FIGS. 21A-21E provide data from polarization binding assays using a fixed concentration of PM12 with 2 μM and FITC-labeled peptides (p[…], p[…], p[…], QRFp[…], p[…]).
as §2

[11] = system: pT-ENR and pT-TDY peptides; experiment: Two-stage chip run, phospho-threonine peptides spiked in the CDNF libraries; format: binding
Protocol: (§4) Using the two-stage recognition run format described above, PTM recognition of phospho-threonine in various peptide motifs was evaluated. Phospho-threonine detection by the PTM-specific affinity reagent in different peptide motifs was evaluated with unphosphorylated threonine ([…], […], […], […], and […]) and compared to their phosphorylated threonine counterparts (QRF-pT-LAYPDDD, RFL-pT-LAYPDDD, FLA-pT-LAYPDDD, LAQ-PT-LAYPDDD, and AQR-pT-LAYPDDD). […] The PTM-specific affinity reagent was also evaluated for its ability to detect phospho-threonine residues at different positions in peptides. […] Similar results were obtained by performing the same two-stage chip run on phospho-threonine peptides spiked in the CDNF libraries (FIGS. 19A-19H).

[12] = system: phospho-threonine peptides; experiment: Two-stage on-chip recognition run, phospho-threonine peptides; format: binding
Protocol: (§5) The phospho-threonine-specific affinity reagent, PM12, was evaluated for its ability to bind phospho-threonine residues residing in a range of motifs and at different positions in peptides (FIG. 15). To evaluate the PTM-specific affinity reagent, two-stage on-chip recognition runs were performed as described in Example 3. […] Peptide sequencing following PTM detection was not affected for either peptide (FIGS. 16A-16C).
(§6) This was followed by a second stage in which reagents for peptide sequencing (amino acid recognition molecules, cleaving reagents) were added to the chip to determine sequence information for the single peptide molecules. The plots shown at the top of FIGS. 16B and 16C are stacked plots showing the number of apertures (y-axis) with recognition taking place on the chip over the course of two-stage recognition runs (x-axis) performed in parallel with peptides having unphosphorylated threonine (FIG. 16B) or phosphorylated threonine (FIG. 16C). Each plot shown at the bottom of FIGS. 16B and 16C is an example binding trace from a single aperture on the chip.
as §4

…-Biotin [13] = molecular target: T5, …-Biotin; experiment: Octet (BLI), fixed reagent concentration; remark: listed apart in the source
T5 sequence (peptide, C-terminal Biotin): TAKLDEESILKQ

pT-[…] = experiment: Octet binding platform, peptide-coated sensors dipped in PM12; conditions: phospho-threonine at the N-terminus
Excerpt: (§7) Next, control peptides ([…] and […]) were compared to model peptides (EFLN-pT-RFYK and p[…]) to evaluate phospho-threonine detection in different peptide motifs using a post-translational modification-specific (PTM-specific) affinity reagent that binds to phospho-threonine (PM12). Using the Octet binding platform, Octet sensors were coated with the peptide of interest and dipped in buffer containing the PTM-specific affinity reagent. […] In contrast, no shift was detected with the corresponding control peptides having unphosphorylated threonine (FIGS. 14A-14B).

EFLN-pT-RFYK [14] = experiment: as above; conditions: phospho-threonine in the middle of the peptide
Excerpt: as §7

[…]-Biotin = Octet binding assay of PTM-specific affinity reagent candidates, TA control peptide; conditions: fixed concentration of reagent
Excerpt: as §1

pSAKLDEESILKQ-Biotin [15] = molecular target: T6, pSAKLDEESILKQ-Biotin; experiment: Octet (BLI), fixed reagent concentration;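 also: octet binding of candidate PTM-specific affinity reagents, each at one fixed concentration, to biotinylated phospho-Thr or phospho-Ser peptides, with unmodified biotinylated peptides serving as controls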
T6 peptide: [pS]AKLDEESILKQ-{Biotin′}
Protocol: as §9

[16] = system: phospho-threonine peptides (p[…], QRFpTLAYPDDD, p[…]); format: binding
[17] = system: unphosphorylated threonine peptides; experiment: Two-stage on-chip recognition run, unphosphorylated threonine peptides; format: binding
Protocol: as §5, §6, §4

[…] = Octet binding platform, peptide-coated sensors dipped in PM12, control peptide; conditions: unphosphorylated threonine
Excerpt: as §7

EFLNTRFY = experiment: as above; conditions: unphosphorylated threonine
Excerpt: as §7

phospho-tyrosine (p[…]) = experiment: Polarization binding assays of PM12; conditions: FITC-labeled peptide, PM12 2 μM
Protocol: as §3, §2

LAQYLAYPDDDK = experiment: On-chip fluorescence signature of PTM-specific affinity reagent binding before sequencing (Example 1), control polypeptide; conditions: polypeptide without PTM, collected for 30 minutes
Protocol: (§8) A control polypeptide ([…]) and a model polypeptide comprising a phospho-tyrosine (LAQ-pY-[…]) were tested in this Example. Each polypeptide was first immobilized onto independent surfaces of a chip. A post-translational modification-specific (PTM-specific) affinity reagent that binds to phospho-tyrosine (PS33 (SEQ ID NO: 35)) and comprised a fluorescent label was then added to the chip and allowed to contact the polypeptides. […] The chip was then washed to remove the PTM-specific affinity reagent. A protein sequencing analysis of the polypeptides was then performed. A mixture of labeled terminal amino acid recognition molecules was added to the chip and allowed to incubate for 15 minutes. After 15 minutes, a mixture of cleaving reagents (a mixture of aminopeptidases) was added to the chip. During these steps, a series of signal pulses indicative of association of the one or more terminal amino acid recognition molecules with successive amino acids exposed at a terminus of each polypeptide were collected while each polypeptide was being degraded.

LAQ-pY-LAYPDDDK = experiment: On-chip fluorescence signature of PTM-specific affinity reagent binding before sequencing (Example 1); conditions: polypeptide with PTM, collected for 30 minutes
Protocol: as §8

Molecule: PM49 (ABCAM® Biotin Anti-Phosphotyrosine antibody [EPR16871])
- Octet shift [1]: 10.2
- fold tighter binding affinity against an N-terminal phospho-tyrosine (QRFpYLAYPDDD-FITC): 2 fold

Molecule: PM12 (Mycobacterium tuberculosis/FhaA) (from UniProt P71590 430-527)
- Octet shift (EFLN-pT-RFYK [2]): 6.8
- Octet shift [3]: 4.4
- Octet binding assay response (p…-Biotin [4]): 7.1
- Octet binding assay response (…-Biotin [5]): 0.6

Molecule: PM06 (Human/14-3-3 protein zeta/delta) (from UniProt P63103 1-245)
- Octet binding assay response (p…-Biotin [6]): 0.1
- Octet binding assay response (…-Biotin [5]): 0.1

Molecule: PM06: Human/14-3-3 protein zeta/delta, SEQ ID NO: 6
- Octet binding assay response, SA (SAKLDEESILKQ-Biotin; SA = SAKLDEESILKQ-Biotin (control)): 0.1
- Octet binding assay response, pSA (pSAKLDEESILKQ-Biotin [7]): 0.1

B1: PM18 (Human/MINT) (other)
chain: MVDMVQLLKKYPIVWQGLLALKNDTAAVQLHFVSGNNVLAHRSLPLSEGGPPLRIAQRMRLEATQLEGVARRMTVETDYCLLLALPCGRDQEDVVSQTESLKAAFITYLQAKQAAGIINVPNPGSNQPAYVLQIFPPCEFSESHLSRLAPDLLASISNISPHLMIVIASV
- Octet binding assay response (p…-Biotin [4]; pTA phosphothreonine peptide): 0.7
- Octet binding assay response (p…-Biotin [4]; pTQR phosphothreonine peptide): 1.6
- Octet binding assay response (p…-Biotin [6]): 0.6
- Octet binding assay response (…-Biotin [5]): 0.9
- Octet binding assay response, pTQR (p[…]-Biotin [8]): 1.6
- Octet binding assay response (TAKLDEESILKQ-Biotin): 0.6
- Octet binding assay response, SA (SAKLDEESILKQ-Biotin; SA = […]-Biotin (control)): 0.9
- Octet binding assay response, pTA (p[…]-Biotin [9]): 0.7

B2: PM12 (Mycobacterium tuberculosis/FhaA) (other)
chain: MGSAGTSVTLQLDDGSGRTYQLREGSNIIGRGQDAQFRLPDTGVSRRHLEIRWDGQVALLADLNSTNGTTVNNAPVQEWQLADGDVIRLGHSEIIVRMH
- binding for phospho-serine [10]: low binding
- discrimination of phosphorylated and unphosphorylated CDNF peptides ([11]; in the same run): able to discriminate between phosphorylated and unphosphorylated CDNF peptides
- binding to phospho-threonine CDNF peptides ([11]; peptide traces): binding to pT-ENR and pT-TDY peptides
- phospho-threonine detection in different peptide motifs ([12]; QRF-pT-, RFL-pT-, FLA-pT-, LAQ-pT-, AQR-pT-LAYPDDD, first 30 minutes): able to detect phospho-threonine in all five peptide motifs tested
- pulsing in the first 30 minutes ([12]; model peptide RFL-pT-LAYPDDD): fast pulsing
- recognition of phospho-threonine at different positions in peptides ([12]; pulsing in the first 30 minutes): recognized phospho-threonine residues at the N-terminus, the C-terminus, and in the middle of peptides
- Octet binding assay response (p…-Biotin [4]): 6.9
- Octet binding assay response (…-Biotin [13]): 0.6
- Octet shift (pT-[…]): 4.4
- Octet shift (EFLN-pT-RFYK [14]): 6.8
- Octet binding assay response, pTQR (p[…]-Biotin [8]): 7.1
- Octet binding assay response, TA ([…]-Biotin): 0.6
- Octet binding assay response (pSAKLDEESILKQ-Biotin [15]): 0.7
- specificity for phospho-threonine ([16]; FITC-labeled peptides, PM12 2 μM): high specificity for phospho-threonine
- preference for phospho-threonine location in the peptide ([16]; internal vs N-terminal phospho-threonines, […]): slight preference for internal phospho-threonines
- signal for unphosphorylated threonine residues at corresponding positions ([17]; N-terminus, C-terminus, middle): no signal was observed
- signal with unphosphorylated peptide motifs ([17]; QRFT-, RFLT-, FLAT-, LAQT-, AQRT-LAYPDDD): no signal was detected
- pulsing in the first 30 minutes ([17]; control peptide […]): no pulsing
- Octet binding assay response, SA (SAKLDEESILKQ-Biotin; SA = […]-Biotin (control)): 0.6
- Octet shift ([…]): no shift
- Octet shift (EFLNTRFY): no shift
- Octet binding assay response, pTA (p[…]-Biotin [9]): 6.9
- binding for phospho-tyrosine (phospho-tyrosine (p[…])): low binding

B3: PS33: SH domanin Fyn Triple mutant, SEQ ID NO: 35; PTM-specific affinity reagent that specifically binds to phospho-tyrosine (protein)
chain: MGAMDSIQAEEWYFGKLGRKDAERQLLSFGNPRGTFLIRESETVKGAYALSIRDWDDMKGDHVKHYLIRKLDNGGYYITTRAQFETLQQLVQHYSERAAGLSSRLVVPSHK
- fluorescence signature representative of binding interaction(s) (LAQYLAYPDDDK): no fluorescence signature
- fluorescence signature representative of binding interaction(s) (LAQ-pY-LAYPDDDK): strong fluorescence signature
